Assay [1] relates to intrinsic pathway (contact activation). Nature of the assay: Thrombin generation assay by CAT triggered by ellagic acid. The class given is biochemical, human. The note with it: ellagic acid trigger, 100 μg/mL. The protocol:
(§1) Thrombin generation was performed as previously described with some modifications.30 In brief, 60 μL platelet poor plasma (PPP), 20 μL FXIIa inhibitor/HA buffer (Hepes 20 mM, NaCl 140 mM, pH 7.4, 5 mg/mL BSA), and 20 μL PPP reagent, PPP LOW reagent, MP reagent or Actin FS (1:170 diluted in HA buffer) were mixed in a 96-well microtiter plate (Immulon 2HB; Thermo Fisher Scientific) and incubated for 15 min at 37° C. Thrombin generation was triggered by the addition of 20 μL of substrate/calcium chloride buffer (FLUKA) at 37° C. Samples were tested in triplicate for each condition. Fluorogenic thrombin substrate hydrolysis was measured every 20 s for 120 min on a microplate fluorometer (Fluoroskan Ascent FL; Thermo Fisher Scientific) with a 390/460-nm (excitation/emission) filter set. Data analysis was performed on the Thrombinoscope software (Synapse By). PPP reagent (TF […], PL 4 μM), PPP LOW reagent (TF […], PL 4 μM), MP reagent (PL 4 μM), thrombin calibrator and FLUKA were purchased from Synapse By.

Assay [2] relates to thrombin generation in platelet poor plasma. As to the kind of experiment: Thrombin generation assay by CAT, TF-triggered or without trigger. Format: biochemical, human. More on the design: lag time: unit not given here. The note with it: 100 μg/mL inhibitor. The protocol:
as §1
Venous blood was collected from healthy volunteers by antecubital venipuncture with 19-gauge needles in 3,2% (w/v) citrated Monovette plastic tubes. In order to minimize contact activation, the first collection tube containing EDTA was discarded according to standard procedures. […] Blood was then processed to PPP by an initial centrifugation step at 2,000 g for 5 min followed by a second centrifugation step at 10,000 g for 10 min. Plasma aliquots were stored at −80 until analysis.

The target in a further assay is trypsin (Homo sapiens, UniProt P07477). Nature of the assay: Specificity FXII618 vs CTI, trypsin. Format: biochemical. To be noted: at a concentration as low as 20 nM.
In assay [3] the test system is intrinsic pathway of coagulation. Nature of the assay: aPTT in human plasma (Example 1). Format: biochemical. To be noted: citrated platelet poor plasma, 100 μg/mL inhibitor. The protocol: aPTT, PT and FXII coagulant activity (FXII:c) measurements Coagulation times (aPTT, PT) and FXIIa activity were determined in human plasma using an automated blood coagulation analyzer (Sysmex CS-5100, Siemens, Eschborn, Germany) with according to the manufacturer's instructions (Siemens). Extrinsic coagulation was triggered with Innovin® (recombinant human tissue factor, synthetic phospholipids and calcium in stabilized HEPES buffer system; Dade Behring/Simens). Intrinsic coagulation was triggered with Pathromtin* SL (Siemens). Human plasma used in this study was derived from a pool of fresh frozen plasma units provided by the Service Regional Vaudois de Transfusion Sanguine, Switzerland.
Coagulation times (aPTT, PT) and FXIIa activity were determined, at least in duplicate, in human plasma using an automated blood coagulation analyzer (Sysmex CA-7000) with standard reagents according to the manufacturer's instructions (Siemens Healthcare, Eschborn, Germany). Human plasma used in this study was derived from a pool of fresh frozen plasma units provided by the Service Regional Vaudois de Transfusion Sanguine, Switzerland.

The next assay concerns the target FXIIa. To be noted: cited from earlier work.
The subject of assay [4] is thrombin generation in platelet poor plasma. Nature of the assay: Thrombin generation assay by CAT, TF-triggered or without trigger. Format: biochemical, human. The note with it: 1 pM TF, 100 μg/mL inhibitor.
Setting [5] is: absence of extrinsic- or intrinsic-specific trigger.

FXIIa, sequence (P00748 373-615 limits assumed, other chains not shown): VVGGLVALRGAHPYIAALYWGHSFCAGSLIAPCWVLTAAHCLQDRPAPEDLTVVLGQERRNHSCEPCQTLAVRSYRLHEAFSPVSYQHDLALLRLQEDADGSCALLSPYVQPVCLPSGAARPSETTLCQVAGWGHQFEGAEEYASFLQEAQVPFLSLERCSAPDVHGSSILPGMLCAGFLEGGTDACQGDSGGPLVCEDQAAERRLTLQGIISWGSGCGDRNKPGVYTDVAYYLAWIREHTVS

B1: CTI: 13.6 kDa protein isolated from corn seeds inhibiting FXIIa (protein)
chain: SAGTSCVPGWAIPHNPLPSCRWYVTSRTCGIGPRLPWPELKRRCCRELADIPAYCRCTALSILMDGAIPPGPDAQLEGRLEDLPGCPREVQRGFAATLVTEAECNLATISGVAECPWILGGGTMPSK
B1: in assay [1], the “reduction of ETP” value is reported as ~90% and the reduction of peak is reported as > 96%. For the same molecule, the lag time in assay [2] (0.25 pM TF) is 8.0±0.2. For the same molecule, in assay [2] (setting [5]), the lag time is listed as 38.7±1.9 and the peak came to 78.0±6.8. Besides, in the assay with trypsin, the “inhibition of trypsin activity” value was “significantly inhibits”. The molecule also returned an aPTT in assay [3] of 65.4 ± 0.5 s. For the same molecule, the Ki at FXIIa was 24 nM. Moreover, the “effect on thrombin generation” value in assay [4] is recorded as “no significant effect”.

The term Ki denotes a dissociation constant, usually derived from enzyme kinetics or from competition with a known ligand.

(Values after patent publication US20180118786A1, “NOVEL lNHIBITORS OF THE ENZYME ACTIVATED FACTOR XII (FXIIA)” (ECOLE POLYTECHNIQUE FEDERALE DE LAUSANNE (EPFL), priority 2015, published 2018).)
